Patent US20210130452A1 (Merck KGaA, published 2021)

T1: mouse IL-17A (mouse, UniProt Q62386 26-158)
T1 sequence (looked up): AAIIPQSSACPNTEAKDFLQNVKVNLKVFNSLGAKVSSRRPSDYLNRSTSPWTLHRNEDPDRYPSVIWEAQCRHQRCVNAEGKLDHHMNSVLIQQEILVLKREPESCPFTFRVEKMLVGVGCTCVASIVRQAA

T2: rat IL-17A (rat, UniProt Q61453 18-150, limits assumed)
T2 construct: made in E. coli, bought
T2 sequence (looked up): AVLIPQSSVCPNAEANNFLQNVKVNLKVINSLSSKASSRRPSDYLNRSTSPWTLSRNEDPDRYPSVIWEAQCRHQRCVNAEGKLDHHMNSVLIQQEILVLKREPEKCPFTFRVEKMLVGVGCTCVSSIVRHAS

T3: human IL-17C (human, UniProt Q9P0M4 19-197)
T3 construct: expressed in E. coli; also called hIL-17C
T3 sequence (looked up): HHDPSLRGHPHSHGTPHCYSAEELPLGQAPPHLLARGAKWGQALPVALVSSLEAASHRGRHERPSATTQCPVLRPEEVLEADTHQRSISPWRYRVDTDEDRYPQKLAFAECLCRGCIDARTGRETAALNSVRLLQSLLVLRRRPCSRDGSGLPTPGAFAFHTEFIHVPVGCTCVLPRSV

T4: human IL-17D (human, UniProt Q8TAD2 18-202, limits assumed)
T4 construct: expressed in E. coli; also called hIL-17D
T4 sequence (looked up): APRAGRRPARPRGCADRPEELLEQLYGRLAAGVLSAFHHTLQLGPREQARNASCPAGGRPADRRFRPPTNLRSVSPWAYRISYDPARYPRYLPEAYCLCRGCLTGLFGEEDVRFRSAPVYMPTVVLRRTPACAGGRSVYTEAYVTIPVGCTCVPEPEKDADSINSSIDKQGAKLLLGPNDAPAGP

T5: human IL-17B (human, UniProt Q9UHF5 21-180)
T5 construct: expressed in E. coli; also called hIL-17B
T5 sequence (looked up): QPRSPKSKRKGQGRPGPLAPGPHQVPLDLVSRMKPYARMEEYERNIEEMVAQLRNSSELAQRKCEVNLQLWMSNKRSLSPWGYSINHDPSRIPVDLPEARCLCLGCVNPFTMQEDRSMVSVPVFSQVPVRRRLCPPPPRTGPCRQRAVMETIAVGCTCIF

T6: human IL-17E (human, UniProt Q9H293 33-177)
T6 construct: expressed in E. coli; also called hIL-17E
T6 sequence (looked up): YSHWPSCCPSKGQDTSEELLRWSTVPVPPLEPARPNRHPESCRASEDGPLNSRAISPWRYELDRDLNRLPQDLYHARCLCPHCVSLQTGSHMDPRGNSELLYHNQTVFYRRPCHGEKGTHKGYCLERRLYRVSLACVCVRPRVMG

T7: rat IL-17F (rat, UniProt Q5BJ95 29-161)
T7 sequence (looked up): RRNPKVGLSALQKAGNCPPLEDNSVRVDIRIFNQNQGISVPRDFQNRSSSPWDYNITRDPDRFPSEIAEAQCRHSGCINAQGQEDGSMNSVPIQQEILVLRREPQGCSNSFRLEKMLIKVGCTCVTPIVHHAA

T8: mouse IL-17F (mouse, UniProt Q7TNI7 29-161)
T8 sequence (looked up): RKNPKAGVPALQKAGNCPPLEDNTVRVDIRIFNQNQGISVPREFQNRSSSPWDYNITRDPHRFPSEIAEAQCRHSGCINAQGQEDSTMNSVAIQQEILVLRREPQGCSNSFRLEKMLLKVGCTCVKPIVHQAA


Tests used:
mouse IL-17A = biological target: T1, mouse IL-17A; test: binding ELISA
Description: (§1) Binding of a selected panel of anti-IL-17 Nanobodies to IL-17 of other species was assessed using a binding ELISA. […] HRP (horseradish peroxidase) conjugated anti-myc (Serotec, MCA 2200P) was used for detection using esTMB as substrate.

rat IL-17A = biological target: T2, rat IL-17A; test: binding ELISA
Description: as §1

human IL-17C = biological target: T3, human IL-17C; test: SPR, cytokine on chip
Excerpt: (§2) Human IL-17B, IL-17C, IL-17D or IL-17E were all expressed in E. coli, and covalently bound to a CM sensor chip surface via amine coupling using EDC/NHS for activation and HCl for deactivation.
(§3) Next, binding buffer was sent over the chip at the same flow rate to allow spontaneous dissociation of bound Nanobody or antibody.

human IL-17D = biological target: T4, human IL-17D; test: SPR, cytokine on chip
Excerpt: as §2, §3

human IL-17B = biological target: T5, human IL-17B; test: SPR, cytokine on chip
Excerpt: as §2, §3

human IL-17E = biological target: T6, human IL-17E; test: SPR, cytokine on chip
Excerpt: as §2, §3

rat IL-17F = biological target: T7, rat IL-17F; test: binding ELISA
Description: as §1

mouse IL-17F = biological target: T8, mouse IL-17F; test: binding ELISA
Description: as §1

Binder	binding result (mouse IL-17A)	binding result (rat IL-17A)	binding result (human IL-17C)	binding result (human IL-17D)	binding result (human IL-17B)	binding result (human IL-17E)	binding result (rat IL-17F)	binding result (mouse IL-17F)
03C07 (VHH, Class 2) VHH: EVQLVESGGGLVQAGGSLRLSCAASGFTFDDYAIGWFRQAPGKEREAVSCFSSSDGSIYYADSVKGRFTISSDNAKNTVYLQMNSLKPEDTAVYYCAGGGGSYYYTQLNYCYDMDYWGKGTQVTVSS	no binding (tested: 250 nM)	no binding (tested: 250 nM)	no binding	no binding	no binding	no binding	–	–
04G01 (VHH, Class 2; also called IL17MS04G01; 04G1) VHH: EVQLVESGGGLVQAGGSQRLSCTASGTIVNIHVMGWYRQAPGKQRELVALIFSGGSADYADSVKGRFTISRDNAKNTVYLEMNSLKAEDTAVYYCAAEIGYYSGGTYYSSEAHWGQGTQVTVSS	no binding (tested: 250 nM)	no binding (tested: 250 nM)	no binding	no binding	no binding	no binding	–	–
01A01 (VHH, Class 4) VHH: EVQLVESGGGLVQAGGSLRLSCAASGFTFDDYDIGWFRQAPGKEREGVSCFTSSDGRTFYADSVKGRFTVSADNAKNTVYLQMNSLEPEDTAVYFCAAVNTFDESAYAAFACYDVVRWGQGTQVTVSS	no binding (tested: 250 nM)	no binding (tested: 250 nM)	no binding	no binding	no binding	no binding	no binding (tested: 250 nM)	no binding (tested: 250 nM)
04B09 (VHH, Class 2; also called 04B9) VHH: EVQLVESGGGLVQPGGSLRLSCAASGFTLGYYAIGWFRQAPGKEREGVSCDSSSDGDTYYANSVKGRFTISTDNGKNTVYLQMNSLKPEDTAVYYCATCTDWNYDYWGQGTQVTVSS	no binding (tested: 250 nM)	no binding (tested: 250 nM)	no binding	no binding	no binding	no binding	–	–
13B03 (VHH, Class 4; also called IL17MS13B03) VHH: EVQLVESGGGSVQAGDSLRLSCAASGRANSINWFGWFRQTPGKEREFVAGIRWSDAYTEYANSVKGRFTISRDNAKNTVDLQMDSLKPEDTAVYYCVLDLSTVRYWGQGTQVTVSS	no binding (tested: 250 nM)	no binding (tested: 250 nM)	no binding	no binding	no binding	no binding	no binding (tested: 250 nM)	no binding (tested: 250 nM)
11A06 (VHH, Class 2) VHH: EVQLVESGGGLVQPGESLRLSCKASGFSLDYYALGWFRQAPGKEREGISCITSSDASAYYTDSVKGRFTISRDNSKNTVYLQMNSLKTEDTAIYYCAAALLTCSSYYDAYTYWGQGTQVTVSS	no binding (tested: 250 nM)	no binding (tested: 250 nM)	no binding	no binding	no binding	no binding	–	–
02A08 (VHH, Class 2) VHH: EVQLVESGGGVVQPGGSLRLSCADSERSFSFNAMGWFRQAPGKEREFVAAISATGDDTYYADSVKGRFAISRDTARNTVYLQMNSLKPEDTAVYYCGARVNFDGTVSYTNDYAYWGQGTQVTVSS	no binding (tested: 250 nM)	no binding (tested: 250 nM)	no binding	no binding	no binding	no binding	–	–
13B05 (VHH, Class 4) VHH: EVQLVESGGRLVQAGGSLRLSCAASGRTFTSYPMGWFRQAPGKEREFVAAISMSGDDTAYTDFVRGRFTISRDDARNTVYLHMTSLKPEDTAVYYCAARTSYDGTYDYIDDYSYWGQGTQVTVSS	no binding (tested: 250 nM)	no binding (tested: 250 nM)	no binding	no binding	no binding	no binding	no binding (tested: 250 nM)	no binding (tested: 250 nM)
17C01 (VHH, Class 4) VHH: EVQLVESGGRLVQAGGSLRLPCAASGRTFTSYPMGWFRQAPGKEREFVAAISMSGDDAAYADFVRGRFTISRDDARNTVYLHMTSLKPEDTAVYYCAARTSYDGTYDYIDDYSYWGQGTQVTVSS	no binding (tested: 250 nM)	no binding (tested: 250 nM)	no binding	no binding	no binding	no binding	no binding (tested: 250 nM)	no binding (tested: 250 nM)
13E02 (VHH, Class 4; also called IL17MS13E02) VHH: EVQLVESGGGLVQAGGSLRLSCAASGRTYDAMGWLRQAPGKEREFVAAISGSGDDTYYADSVKGRFTISKDNAGITMYLQMNSLKPEDTAVYYCATRRGLYYVWDSNDYENWGQGTQVTVSS	no binding (tested: 250 nM)	no binding (tested: 250 nM)	no binding	no binding	no binding	no binding	no binding (tested: 250 nM)	no binding (tested: 250 nM)
09G10 (VHH, Class 2) VHH: EVQLVESGGGLVQAGGSLRLSCAASDSVFTAKAVGWYRQPPGLQREWVAIITSGGKTNYADSSVKGRFTVSVDKVKNTVTLQMNSLKPEDTAVYYCYAQWMGRDYWGQGTQVTVSS	no binding (tested: 250 nM)	no binding (tested: 250 nM)	no binding	no binding	no binding	no binding	–	–
11C08 (VHH, Class 4) VHH: EVQLVESGGGLVQAGGSLRLSCAASGVIFRLNAMGWYRAAPGKQRELVAIIVNGGSTNYADSVKGRFTISRDSAKNAVYLQMNSLKPEDTAVYYCYYNIPGDVYWGQGTQVTVSS	no binding (tested: 250 nM)	no binding (tested: 250 nM)	no binding	no binding	no binding	no binding	no binding (tested: 250 nM)	no binding (tested: 250 nM)
